Data as given in publication PMC3154154.

Assays:
[1] = target: L19 IgG-DnaEN after PTS (trans-spliced with DnaEC peptide without a probe) (human); assay: SPR; Biacore T100; L19 IgG or modified versions immobilised on a CM5 chip treated with antibody capture kit; soluble Fc receptor fragments as analytes at 1.56 - 50 nM; association and dissociation kinetics used to calculate the dissociation constant
[2] = target: L19 IgG-GyrA after EPL (cleaved with Mesna, cysteine as probe) (human); assay: as above
Sequence of L19 IgG-GyrA after EPL (cleaved with Mesna, cysteine as probe) (human) (heavy, as listed by the source, chain 1 of 2): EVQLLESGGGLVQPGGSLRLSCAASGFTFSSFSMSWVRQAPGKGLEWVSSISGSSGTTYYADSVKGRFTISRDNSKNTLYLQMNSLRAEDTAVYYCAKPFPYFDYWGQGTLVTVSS
Sequence of L19 IgG-GyrA after EPL (cleaved with Mesna, cysteine as probe) (human) (light, as listed by the source, chain 2 of 2): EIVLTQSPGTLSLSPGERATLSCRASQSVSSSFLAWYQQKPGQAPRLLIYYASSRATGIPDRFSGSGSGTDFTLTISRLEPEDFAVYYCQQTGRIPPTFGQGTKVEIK

[3] = target: L19 IgG control antibody (unmodified, without linker) (human); assay: as above
Sequence of L19 IgG control antibody (unmodified, without linker) (human) (heavy, as listed by the source, chain 1 of 2): as the sequence (heavy, as listed by the source, chain 1 of 2) above
Sequence of L19 IgG control antibody (unmodified, without linker) (human) (light, as listed by the source, chain 2 of 2): as the sequence (light, as listed by the source, chain 2 of 2) above

[4] = target: L19 IgG after EPL (L19 IgG-GyrA cleaved with Mesna and derivatized with cysteine) (human); assay: SPR; Biacore T100; L19 IgG or modified versions immobilized on a CM5 chip treated with antibody capture kit; soluble Fc receptor fragments 1.56 - 50 nM as analytes; KD calculated from association and dissociation kinetics
Sequence of L19 IgG after EPL (L19 IgG-GyrA cleaved with Mesna and derivatized with cysteine) (human) (heavy, as listed by the source, chain 1 of 2): as the sequence (heavy, as listed by the source, chain 1 of 2) above
Sequence of L19 IgG after EPL (L19 IgG-GyrA cleaved with Mesna and derivatized with cysteine) (human) (light, as listed by the source, chain 2 of 2): as the sequence (light, as listed by the source, chain 2 of 2) above

[5] = target: L19 IgG after PTS (L19 IgG-DnaEN trans-spliced with DnaEC peptide without a probe) (human); assay: as above
Sequence of L19 IgG after PTS (L19 IgG-DnaEN trans-spliced with DnaEC peptide without a probe) (human) (heavy, as listed by the source, chain 1 of 2): as the sequence (heavy, as listed by the source, chain 1 of 2) above
Sequence of L19 IgG after PTS (L19 IgG-DnaEN trans-spliced with DnaEC peptide without a probe) (human) (light, as listed by the source, chain 2 of 2): as the sequence (light, as listed by the source, chain 2 of 2) above

Sequence of L19 IgG-DnaEN after PTS (trans-spliced with DnaEC peptide without a probe) (human) (heavy, as listed by the source, chain 1 of 2): as the sequence (heavy, as listed by the source, chain 1 of 2) above
Sequence of L19 IgG-DnaEN after PTS (trans-spliced with DnaEC peptide without a probe) (human) (light, as listed by the source, chain 2 of 2): as the sequence (light, as listed by the source, chain 2 of 2) above

| Kd [1] [nM] | koff [1] [s⁻¹] | kon [1] [M⁻¹ s⁻¹] | Kd [2] [nM] | koff [2] [s⁻¹] | kon [2] [M⁻¹ s⁻¹] | Kd [3] [nM] | koff [3] [s⁻¹] | kon [3] [M⁻¹ s⁻¹] | Kd [4] [nM] | Kd [5] [nM] | Substance |
| --- | --- | --- | --- | --- | --- | --- | --- | --- | --- | --- | --- |
| 0.21 | 0.000201 | 960000 | 0.13 | 0.000145 | 1.11e+06 | 0.17 | 0.000168 | 1.02e+06 | – | – | Fcγ RI/CD64, soluble Fc receptor fragment (from UniProt P12314 16-292) |
| – | – | – | – | – | – | – | – | – | 60 | 60 | soluble Fc receptor fragment Fcγ RIIIA/CD16a (from UniProt P08637 17-208) |
